Residue numbers refer to the chain shown, from its start.
B1: ePGDM13 (antibody, V domains shown)
VH: QAQLVQSGPEVRKPGTSVKVSCKNPGNTLTTYDLHWVRQVPGQGLQWMGWISHEGDKKVIVERFKAKVTIDWDRSTNTAYLQLSGLTSEDTAVYYCAKGSKHRLRDYALYDEDGALNWAVDVDYLANLEFWGQGTAVTVSS
VL: DIVLTQSPLSLSVTPGESASISCKSSHSLQHGDRNNYLAWYVQKPGRSPQLLLDLASERASGVPDRFSGSGSEKDFTLKISRVETEDVGTYYCMQGRESPWTFGQGTKVDIK
B2: PGDM1400 (antibody, V domains shown)
VH: B1 VH with A2V, Q3H, V5T, N24A, T30K, Q39S, E89G, E112D, A126S
VL: B1 VL with I2F, L9H, Q30I, L53I, D54Y, E58S, E73D
B3: ePGDM9 (antibody, V domains shown)
VH: B1 VH
VL: B1 VL with H27Q, Q30I, L53I, E73R
B4: ePGDM5 (antibody, V domains shown)
VH: B1 VH
VL: B1 VL with I2F, S26D, L53I, E73R, S81D, T85A

These binders were tested against HIV Env of isolate Du172.17 (clade C) (HIV) (assay: cell-based or functional assay).

Going from B1 to B2, the “IC50 (µg/ml) with constrains” value rises from 1.5 µg/mL to 5.42 µg/mL (3.6-fold).

Compared with B3, B4 is 1.7-fold higher in “IC50 (µg/ml) with constrains” value: 0.865 µg/mL for the first, 1.49 µg/mL for the second.

These binders were tested against HIV Env of isolate WEAU_d15_410_5017 (clade B) (HIV) (assay: cell-based or functional assay).

Going from B1 to B2, the “IC50 (µg/ml) with constrains” value rises from 0.003 µg/mL to 0.075 µg/mL (25-fold).

First: B3
Second: B4
The “IC50 (µg/ml) with constrains” value of the first is 2-fold higher: 0.002 µg/mL for the first, 0.001 µg/mL for the second.

What follows are binders tested against HIV Env of isolate Du156.12 (clade C) (HIV) (assay: cell-based or functional assay).

B1 and B2 are the same in “IC50 (µg/ml) with constrains” value: 0.006 µg/mL for the first, 0.006 µg/mL for the second.

Compared with B3, B4 is 1.5-fold higher in “IC50 (µg/ml) with constrains” value: 0.004 µg/mL for the first, 0.006 µg/mL for the second.

The binders below were run against HIV Env of isolate 7030102001E5(Rev-) (clade C) (HIV) (assay: cell-based or functional assay).

B1 and B2 cannot be ordered by “IC50 (µg/ml) with constrains” value: over 100 µg/mL for the first, over 100 µg/mL for the second.

B3 and B4 cannot be ordered by “IC50 (µg/ml) with constrains” value: over 100 µg/mL for the first, over 100 µg/mL for the second.

These binders were tested against HIV Env of isolate RHPA4259.7 (clade B) (HIV) (assay: cell-based or functional assay).

B1 and B2 are within 1.5-fold of each other in “IC50 (µg/ml) with constrains” value: 0.358 µg/mL for the first, 0.491 µg/mL for the second.

Going from B3 to B4, the “IC50 (µg/ml) with constrains” value rises from 0.145 µg/mL to 0.464 µg/mL (3.2-fold).

Each binder was assayed against HIV Env of isolate X1193_C1 (clade G) (HIV) (assay: cell-based or functional assay).

B1 and B2 are within 1.5-fold of each other in “IC50 (µg/ml) with constrains” value: 0.095 µg/mL for the first, 0.094 µg/mL for the second.

B3 and B4 are the same in “IC50 (µg/ml) with constrains” value: 0.039 µg/mL for the first, 0.039 µg/mL for the second.

The binders below were run against HIV Env of isolate Ce1176_A3 (clade C) (HIV) (assay: cell-based or functional assay).

First: B1
Second: B2
The “IC50 (µg/ml) with constrains” value of the first is 17-fold lower: 0.031 µg/mL for the first, 0.526 µg/mL for the second.

B3 and B4 are the same in “IC50 (µg/ml) with constrains” value: 0.022 µg/mL for the first, 0.022 µg/mL for the second.

Each binder was assayed against HIV Env of isolate Q23.17 (clade A) (HIV) (assay: cell-based or functional assay).

B1 and B2 are the same in “IC50 (µg/ml) with constrains” value: 0.001 µg/mL for the first, 0.001 µg/mL for the second.

In the case of B4, the “IC50 (µg/ml) with constrains” value is reported as 0.001 µg/mL.

B1 and B2 are within 1.5-fold of each other in “IC80 (µg/ml) with constrains” value: 0.004 µg/mL for the first, 0.005 µg/mL for the second.

First: B3
Second: B4
The “IC80 (µg/ml) with constrains” value of the first is 2-fold lower: 0.002 µg/mL for the first, 0.004 µg/mL for the second.

What follows are binders tested against HIV Env of isolate PVO.4 (clade B) (HIV) (assay: cell-based or functional assay).

B1 and B2 are within 1.5-fold of each other in “IC50 (µg/ml) with constrains” value: 2.95 µg/mL for the first, 3.41 µg/mL for the second.

B3 and B4 are within 1.5-fold of each other in “IC50 (µg/ml) with constrains” value: 1.93 µg/mL for the first, 1.39 µg/mL for the second.

Each binder was assayed against HIV Env of isolate ZM197M.PB7 (clade C) (HIV) (assay: cell-based or functional assay).

B1 and B2 are within 1.5-fold of each other in “IC50 (µg/ml) with constrains” value: 0.06 µg/mL for the first, 0.071 µg/mL for the second.

Compared with B3, B4 is 1.5-fold higher in “IC50 (µg/ml) with constrains” value: 0.023 µg/mL for the first, 0.035 µg/mL for the second.

The binders below were run against HIV Env of isolate Ce703010054_2A2 (clade C) (HIV) (assay: cell-based or functional assay).

First: B1
Second: B2
The “IC50 (µg/ml) with constrains” value of the first is 1.8-fold lower: 0.008 µg/mL for the first, 0.014 µg/mL for the second.

B3 and B4 are the same in “IC50 (µg/ml) with constrains” value: 0.008 µg/mL for the first, 0.008 µg/mL for the second.

The binders below were run against HIV Env of isolate ZM53M.PB12 (clade C) (HIV) (assay: cell-based or functional assay).

Compared with B1, B2 is 1.8-fold higher in “IC50 (µg/ml) with constrains” value: 0.005 µg/mL for the first, 0.009 µg/mL for the second.

B3 and B4 are within 1.5-fold of each other in “IC50 (µg/ml) with constrains” value: 0.006 µg/mL for the first, 0.005 µg/mL for the second.

These binders were tested against HIV Env of isolate T250-4 a.k.a. CRF250 (clade AG) (HIV) (assay: cell-based or functional assay).

First: B1
Second: B2
The “IC50 (µg/ml) with constrains” value of the first is 8-fold lower: 0.035 µg/mL for the first, 0.28 µg/mL for the second.

Going from B3 to B4, the “IC50 (µg/ml) with constrains” value rises from 0.041 µg/mL to 0.065 µg/mL (1.6-fold).

Going from B1 to B2, the “IC80 (µg/ml) with constrains” value rises from 0.14 µg/mL to 1.12 µg/mL (8-fold).

Going from B3 to B4, the “IC80 (µg/ml) with constrains” value rises from 0.163 µg/mL to 0.261 µg/mL (1.6-fold).

What follows are binders tested against HIV Env of isolate Du422.1 (clade C) (HIV) (assay: cell-based or functional assay).

B1 and B2 are within 1.5-fold of each other in “IC50 (µg/ml) with constrains” value: 27.5 µg/mL for the first, 33.4 µg/mL for the second.

Compared with B3, B4 is 1.5-fold lower in “IC50 (µg/ml) with constrains” value: 13.3 µg/mL for the first, 8.64 µg/mL for the second.

Each binder was assayed against HIV Env of isolate C1080.c03 (clade AE) (HIV) (assay: cell-based or functional assay).

B1 and B2 are the same in “IC50 (µg/ml) with constrains” value: 0.001 µg/mL for the first, 0.001 µg/mL for the second.

Going from B3 to B4, the “IC50 (µg/ml) with constrains” value rises from 0.001 µg/mL to 0.003 µg/mL (3-fold).

Going from B1 to B2, the “IC80 (µg/ml) with constrains” value rises from 0.003 µg/mL to 0.005 µg/mL (1.7-fold).

First: B3
Second: B4
The “IC80 (µg/ml) with constrains” value of the first is 2.8-fold lower: 0.004 µg/mL for the first, 0.011 µg/mL for the second.

The binders below were run against HIV Env of isolate 3301.v1.c24 (clade AC) (HIV) (assay: cell-based or functional assay).

Going from B1 to B2, the “IC50 (µg/ml) with constrains” value rises from 0.057 µg/mL to 0.131 µg/mL (2.3-fold).

First: B3
Second: B4
The “IC50 (µg/ml) with constrains” value of the first is 2-fold lower: 0.021 µg/mL for the first, 0.043 µg/mL for the second.

Compared with B1, B2 is 2.3-fold higher in “IC80 (µg/ml) with constrains” value: 0.228 µg/mL for the first, 0.523 µg/mL for the second.

Compared with B3, B4 is 2.1-fold higher in “IC80 (µg/ml) with constrains” value: 0.084 µg/mL for the first, 0.174 µg/mL for the second.

Each binder was assayed against HIV Env of isolate R3265.c06 (clade AE) (HIV) (assay: cell-based or functional assay).

B1 and B2 are within 1.5-fold of each other in “IC50 (µg/ml) with constrains” value: 0.026 µg/mL for the first, 0.019 µg/mL for the second.

B3 and B4 are within 1.5-fold of each other in “IC50 (µg/ml) with constrains” value: 0.019 µg/mL for the first, 0.028 µg/mL for the second.

B1 and B2 are within 1.5-fold of each other in “IC80 (µg/ml) with constrains” value: 0.104 µg/mL for the first, 0.075 µg/mL for the second.

B3 and B4 are within 1.5-fold of each other in “IC80 (µg/ml) with constrains” value: 0.078 µg/mL for the first, 0.113 µg/mL for the second.

Each binder was assayed against HIV Env of isolate 62357_14_D3_4589 (clade B) (HIV) (assay: cell-based or functional assay).

Going from B1 to B2, the “IC50 (µg/ml) with constrains” value rises from 17.4 µg/mL to over 100 µg/mL.

B3 and B4 are within 1.5-fold of each other in “IC50 (µg/ml) with constrains” value: 9.51 µg/mL for the first, 9.98 µg/mL for the second.

The binders below were run against HIV Env of isolate TRO.11 (clade B) (HIV) (assay: cell-based or functional assay).

Going from B1 to B2, the “IC50 (µg/ml) with constrains” value falls from 0.352 µg/mL to 0.206 µg/mL (1.7-fold).

Going from B3 to B4, the “IC50 (µg/ml) with constrains” value rises from 0.163 µg/mL to 0.315 µg/mL (1.9-fold).

What follows are binders tested against HIV Env of isolate CNE17 (clade BC) (HIV) (assay: cell-based or functional assay).

Compared with B1, B2 is 1.6-fold lower in “IC50 (µg/ml) with constrains” value: 0.008 µg/mL for the first, 0.005 µg/mL for the second.

Going from B3 to B4, the “IC50 (µg/ml) with constrains” value rises from 0.003 µg/mL to 0.007 µg/mL (2.3-fold).
